Literature values, collected in publication PMC7862380.
pKd: −log10 of the molar value.

How the values were obtained:
[1] = target: Met1-linked di-ubiquitin (Homo sapiens) (UniProt P0CG48)
[2] = target: Lys63-linked di-ubiquitin (Homo sapiens) (UniProt P0CG48)

Chain of OTULIN (Q96BN8 whole entry): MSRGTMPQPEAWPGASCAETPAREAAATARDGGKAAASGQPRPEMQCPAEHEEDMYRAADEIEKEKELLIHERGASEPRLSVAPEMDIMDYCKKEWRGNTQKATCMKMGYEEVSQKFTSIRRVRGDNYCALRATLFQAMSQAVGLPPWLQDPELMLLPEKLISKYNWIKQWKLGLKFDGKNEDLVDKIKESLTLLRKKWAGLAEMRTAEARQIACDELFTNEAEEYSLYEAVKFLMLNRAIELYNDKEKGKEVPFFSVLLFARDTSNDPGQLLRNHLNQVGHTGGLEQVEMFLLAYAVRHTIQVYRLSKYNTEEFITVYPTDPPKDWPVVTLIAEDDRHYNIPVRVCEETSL

Q: With OTULIN (from UniProt Q96BN8) as the substance, how does the pKd [1] read?
A: 6.92

Q: And the pKd [2]?
A: 4.92
